# Laboratory results: patent US20170016905A1 (VAR2 PHARMACEUTICALS, published 2017)
# Biological target: T1, CSPG (bovine) (D8428, Sigma) (bovine, UniProt P21793 31-360, carries chondroitin sulfate A (CSA) glycosaminoglycan chain(s); the filing attributes the binding of VAR2CSA to this glycan)
# T1 construct: also called chondroitin sulfate proteoglycan; CSA proteoglycan
# Assay: quartz crystal microbalance (Attana A100); legend: N/A = no KD value could be determined, due to a lack of binding to CSA
# T1 sequence (P21793 31-360): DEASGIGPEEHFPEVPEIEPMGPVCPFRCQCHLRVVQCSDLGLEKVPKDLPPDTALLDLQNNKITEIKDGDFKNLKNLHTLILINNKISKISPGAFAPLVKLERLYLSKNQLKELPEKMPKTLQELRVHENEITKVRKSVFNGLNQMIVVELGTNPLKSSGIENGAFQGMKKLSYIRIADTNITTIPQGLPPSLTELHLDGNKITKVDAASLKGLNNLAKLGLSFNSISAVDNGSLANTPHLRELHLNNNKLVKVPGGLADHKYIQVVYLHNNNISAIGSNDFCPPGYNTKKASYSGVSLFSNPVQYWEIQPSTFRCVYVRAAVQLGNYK
row,Binder,binding result
1,"DBL1X-DBL2Xa (FCR3, Baculo) (other, Range derived by me from the FCR3 DBL1X forward primer and the FCR3 DBL2Xa reverse primer (STTNAA), which ends 93 residues before the DBL2Xb border; not shown: V5 and His tag at the C-terminal (modified pAcGP67-A)) HSDSGKYDPCEKKLPPYDDNDQWKCQQNSSDGSGKPENICVPPRRERLCTYNLENLKFDKIRDNNAFLADVLLTARNEGEKIVQNHPDTNSSNVCNALERSFADLADIIRGTDQWKGTNSNLEKNLKQMFAKIRENDKVLQDKYPKDQKYTKLREAWWNANRQKVWEVITCGARSNDLLIKRGWRTSGKSDRKKNFELCRKCGHYEKEVPTKLDYVPQFLRWLTEWIEDFYREKQNLIDDMERHREECTREDHKSKEGTSYCSTCKDKCKKYCECVKKWKTEWENQENKYKDLYEQNKNKTSQKNTSRYDDYVKDFFEKLEANYSSLENYIKGDPYFAEYATKLSFILNPSDANNPSGETANHNDEACNCNESGISSVGQAQTSGPSSNKTCITHSSIKTNKKKECKDVKLGVRENDKDLKICVIEDTSLSGVDNCCCQDLLGILQENCSDNKRGSSSNDSCDNKNQDECQKKLEKVFASLTNGYKCDKCKSGTSRSKKKWIWKKSSGNEEGLQEEYANTIGLPPRTQSLYLGNLPKLENVCEDVKDINFDTKEKFLAGCLIVSFHEGKNLKKRYPQNKNSGNKENLCKALEYSFADYGDLIKGTSIWDNEYTKDLELNLQNNFGKLFGKYIKKNNTAEQDTSYSSLDELRESWWNTNKKYIWTAMKHGAEMNITTCNADGSVTGSGSSCDDIPTIDLIPQYLRFLQEWVENFCEQRQAKVKDVITNCKSCKESGNKCKTECKTKCKDECEKYKKFIEACGTAGGGIGTAGSPWSKRWDQIYKRYSKHIEDAKRNRKAGTKNCGTSSTTNAA",no binding
2,"ID1-DBL2Xa (3D7, Baculo) (other, not shown: V5 and His tag at the C-terminal (modified pAcGP67-A)) LSFILNSSDANNPSEKIQKNNDEVCNCNESGIASVEQEQISDPSSNKTCITHSSIKANKKKVCKHVKLGVRENDKDLRVCVIEHTSLSGVENCCCQDFLRILQENCSDNKSGSSSNGSCNNKNQEACEKNLEKVLASLTNCYKCDKCKSEQSKKNNKNWIWKKSSGKEGGLQKEYANTIGLPPRTQSLCLVVCLDEKGKKTQELKNIRTNSELLKEWIIAAFHEGKNLKPSHEKKNDDNGKKLCKALEYSFADYGDLIKGTSIWDNEYTKDLELNLQKIFGKLFRKYIKKNNTAEQDTSYSSLDELRESWWNTNKKYIWLAMKHGAGMNSTTCCGDGSVTGSGSSCDDIPTIDLIPQYLRFLQEWVEHFCKQRQEKVKPVIENCKSCKESGGTCNGECKTECKNKCEVYKKFIEDCKGGDGTAGSSWVKRWDQIYKRYSKYIEDAKRNRKAGTKNCGPSSTTNAA",no binding
